Measurements from the domain aggregation screens of Martell et al. (2025).

Assay: soluble fraction after stress (log2 fold change); higher = more stays soluble; pooled small domains, quantitative proteomics
Conditions: stress: 75 degC
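Further: 20 min heating vs room temperature control held 20 min.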

Sequence | soluble fraction (log2)
HMGTDIGADKAAQTALADAGLSSSQVTGLRTKQDWDDGQLRYEVEFRAGGVEYDYELAADGTILKADRDT | 0.17
HMGTEITEQRAKEIALENAKVAESDVTAMRVKKEMDDGVWRYDVEFYVQNKEYDYEINAMDGTILSVDYD | -0.00128
HMGTESFGARIRKIREARDWTPAALAEATGQTPEFVARVERDEVAPPVAFLLRLAAALGVDPSTF | -0.557
HMGTGADKNSWTIGDKVKHRKWGTGTVVKVTGAGEDAELDIAFKSEGIKRLLAAFAPIEKVK | -0.165
HMGTHDAGTRFFDNLDSLLQNRDATRADVLAVYLLAVSLGFRGKHRSVSSAPQIAHYRNQAYVTLFQ | 0.737
HMGTIEQAFKGKAPGSAHLYDRARAVLAGGVTHDTRIHAPFPIMVQRALGARKWDVDGNEYIDY | 0.064
HMGTMKGFVDGSSVHLRSGPSLSESIRAKVVKGQTLYITERRGDWYRATVHGGGEGWIHTSLVKLAG | -1.68
HMGTPLYLLLAAEVRDRIATEQLAPHTAVPSERELAELHGVSRMTARQALALLESEGLVYRNPPRGTFVAE | -1.15
HMGTQIKSPMPGTILDVRVNVGDTVKEGDILMILEAMKMENEILAPVSGKVAAIQVSKGTAVNSGDLLAVL | -0.0689
HMGTRHPLPYAYARANTVLLEDDGDRLVLWAPENVSLTALGEVLRRFDVDALERESSSTLANRIAVAYAG | -0.774
HMGTTLTKIPGIGENRARLLLRHFGSLRAVREADADALAAVKGMTRPAAEAIVRYFEQQDAEGRRD | 0.282
HMGTTTPPATRKGKVTSSFLNVRSGPSTANAKVAELKQNAVVTIYETSSNGWHRIGVNQWVIGTNIQE | -1.2
HMGTVSSGSSSTDTPFSLGEIVRHKVFGEGVVLSIEGQGDASRIQINFNTAGTKWLVTAYADLEK | -1.09
HMGTVVKRNALVHAWTEFNGGRASTKLLALGPGKVGEWIELENPQSGRKLRGEVQVDGSVRLG | 0.0593
HMGTWKKIGTMTATVNDLYVRETPNGYIMGFINKGTVVEVDGKTTGKWTHAKVEGIGVGWIWTGYLDK | -3.17
HMGTYYTEIIAQLKKEIANGTWKLGERLPGELALAKQFNVSRSSIREALKALAYAGIVESKPGRGTFLLHV | -1.5
HMGVAAEDPDEAEKGAHSLKSSAANVGAEVVRGLAGEIESAASSGDVEAVRTILPGLEDAYSQAITDLET | 0.266
HMGVDMGPAKYVGQKALTATEMRPAGKIQIGQTVFDAVSVGPFIGARKAVKVIKYENAQLYVEPE | -0.415
HMGVEVEVPNVKGKLVADAEYELGLAQLTPVRTDSAYNRNLPPGTVLEQLPASGSHVKEGREIYLTINST | 0.284
HMGVGERIKARRKEIGLSAEQVAKELGVSPATVYRYESNDIMNMRIDKLEPIAKALHTTPAYLMGWE | -0.0856
HMGVGVKSTEVDYQRTSSGSDIPTDDAAWTKTIPAVKVNTFLWTRTKINYTDGTSAIFYSVGY | -3.05
HMGVGVPVTLLLEKLGEDTLSAQQIMERLGLKSRASFRKVYLVPALEQKLIEMEFPDKPNSSKQRYRR | -0.859
HMGVISRVITFWQNGFTVDDGPLRAFDDPANMAFMESIGRGEAPAELAPKTRTQRVNINLVQRHEPYSAPK | -0.147
HMGVITVRPPIVVRDFAIALNLKPFQVIGNLMELNKVVSVSSVIEEADARKVAERHGYTLEIRH | -1.67
HMGVMNEYEELRDRYLTGQIWKIGDLVEAKGIEGKIIQRGTNYITFNDSQGKVHKAWLHEIKV | -0.00315
HMGVNNDIIKHRKLEFMIEMLPDTFTRKEANEIGEGLGISLATLTRYLSSDAFERTGHGRYRKKD | -1.35

Sequence | soluble fraction (log2)
HMGVPTEQEIGKRILAWRKLRGMTLQQLADKAGVGLTTIHNLETGLWYAKMPTYLYIAEALGVSLDALIYG | -1.76
HMGVPVTAPMPGKVLKVTVSVGAAVKNGDLVLVLEAMKMENEIFATANGVVKEIRSREGDTVNSGDVMMVI | -2.19
HMGVRPAALGFQKVRIEPQVGTFREASGDVITPRGLIHAEWKRDEENALHLHYTLPDGVAYA | -0.0752
HMGVSDDMARGVVRARQFLSDFAAVPLDRMTPAEAVARARQLKSELETDAKHSPWLLDVLSNA | -0.116
HMGVSEIGSPAWMESKLVTLASYEGSLDGLRTLWGGVAQHRARIPVESWDRLFAAKEEGKARLVKLGRT | -1.25
HMGVSLREVPVAEHGDWIGRPIKELGIPAEVLIVLVRRADGTTVVPKGGTVLQQGDMLVVNEWEE | -1.16
HMGVTDSSYNVLRRQILEMLSVQQRTPADLARLIEADKEEIAAVIRFLLDKGEIQMEDGMLQTK | -0.821
HMGVVEEVAADFEGRAVVGKVDVDEQTELARRFGIMSIPTLVVMKGGKVVEQAVGARGKADIAAMLERH | 0.183
HMGYINLNVKVSPEWRDFWRSAYASVVAGYHQNKEHWNTIILDGSIPDKDIKRMIAESYDLVSD | -0.561
HMGYLNDRQRLIKDFITENQPLKVSDLVKQFPNIGLSTLKKDLQYLRGEQVLTMIGKGKGSVYVLNKK | -0.975
HMGYNDQEVKSNLITLLSTSKTGLSGVEISAQLGINRVTMTKFLNVFAAEGIIKQKNIGNLNLWLVEEGTE | -3.44
HMGYTTSFVVQLKNAVSISFDEIDQNLRKLPGVEDVVIVEEAAMAYLKVDRQHFREEQLAHFEFVRQ | -1.99
HMGYVQLTAREKEVLQGLVDGASYKMIAAKLDIRFGTVHTHVKNIYEKLHVNSASEAVVKAIRQRL | -2.26
HMHADIAATVVATMRQLGVLGLPRNYEIFYEALSGTNRELSLAVVSLSNRPTQDDLDRIGRRFFA | -1.33
HMHAEEIAREAKEALERGEEFHFAGITVRSEEALEFLEEWLRKFF | -1.02
HMHALSVKFSDEAAKTLPYDILSALRDVLALDPRPGYSRDENKIYRFEYADYNISFSVKDKTLTVLSAEK | -2.15
HMHAPRIEVVQIDPEKIGALIGPGGKNIRRITEVTGANLDIDEDNSGKIRVYASDSEAMNRALQEIDLVT | 0.308
HMHDHKTRLQELAAQRFGSAPSYLLTADGPAHDRRFHASVEVGGRSFGPGTGKSKKRAEQVAAHIAWDALS | 0.238
HMHDIPDITDLRPLRHTLGLTLAHAAQQLNTTTATISRLERGQHRNDHLATTYRTWLHTHPT | -0.291
HMHDLSQQIVRYLIQQGGSSSLTDKSDPQEIYRTFKVSKKKYKQALGNLYKSKTIVITSGKIELVD | -3.03
HMHDYNTIVGVIEMRDKNIPLTSIRQRYGIGYSGIDLILTRYKDSGLTLKEFLALDPSQAEELIYPPK | -0.961
HMHEHWDGSGFPKHLRGANIPLGARVIAVADTYDSITSSRAYRAGSTHEAAEREMRRVSGTQLDPE | 0.0624
HMHEIVDTVLQVKQSVEADPLIAPALKNKEIVFQLNAKGVFQFKNAVIQVASALGISKNTVYMHLRNNK | -3.04
HMHETMGQIIKRLRKERGLTQESLAERLGVTFQAVSKWETDAGMPDVSQIVPLANAFGVRTDVLFGLEGRD | -0.744
HMHEYSRIYQQQWWDNATGADAYHVIHSARSRAAQDPEAARALEYLEEQFRIRYGVRTEDFLGYLHD | -1.2
HMHFENEETFVLPLVREGFSEQQQLEMVDRLLFDANTDNPRWIIDWMASELPSTQRELLLDLEKRLAEVRS | -0.0441

Sequence | soluble fraction (log2)
HMHFEWNELRKAINDFLAEQNMNEDKQLGPYFIQRDIVVPETGTEIDSKKFSEVFKHKVIMYLFDDAAKQ | 0.0433
HMHGESISVPDLRGQKMERMPAFLADKHLQFKVIDSLFDLEKNPGTVLEQDPAPNSKVKEGRTIYLTVNAQ | -0.00257
HMHGQGTYTSPDGTKYVGDWQDEKMHGQGTYTYPDGMKFVGEFKDNKPWNGTGYDKYGNVKATFSNGVGKS | -0.0508
HMHGSSSTVPPVKGLSFEQARLTLAENDLTVEISDSIYDRNARPGTVVESWPRAGSVVKQGRQVYVTVTAF | -0.894
HMHHDDHNQQEEIKEKLLAMVADGERHHVTEVRQLDEDWDMVTKVMKELMDEEQLLMDGSYLILSA | 0.116
HMHHSGLRQSQFDEISRQIRSLLEMESLSLQELKTRMEDVPEEQLTKVVSYLLSEEIIRQENGRLQ | 0.254
HMHKAVVGPPNARKLAVTYGFKRWPALVFFRDGKYLGAVDGLRLWADLVREADEIMHSEPHYP | 0.0613
HMHKFMEQNQDRRLSRMKELIGILSEAAKTYYQESREIMSNFQYDRMYDELLELEKETGVVMAGSPTQKV | -0.276
HMHKKQEVQDSIDAAEEFMRASGVPAELITSKRAYAVKAIYADAVDKGTPDEIVKKDGMIVALISQMRS | 0.421
HMHKLTIEEALNYKTPANAGGPYSGKPFRDIYDQRGKAAVISFAKYYLSKATPEDPMVEVYRTLLDGAMEL | -1.61
HMHKREKSFFETIYDDIPGIGKKRRVQLLSAYPTLDSLKSVTLEELKQIVPEESAKLILEKRDSR | 0.0151
HMHPARITATVRVGEGDLVDIEREAELGGPIHSKGVMILSSFLGARYARTVPLSLSASLVFEQSY | 0.0581
HMHPDALTEREREVLSLLADGLSNREIAARLVLALGTVKWYISVIYSKLGVTRRTQAIARARELHLV | -0.0116
HMHPEETVNLILDAAFRLFLEKGYEHTSIQDIIGQLGGLSKGAIYHHFNSKEDILIAVTDRMTA | -2.12
HMHPEQTLEKIVDISAELFAKKGYEQTSIQDILDATGLSKGGLYHHFKSKEEILEAVMQKRVQY | -0.154
HMHPFELNTVTEGQLKRLPFLSDLQIRELLEYRSRYGKMLTLYELKNVEAFDLETISLLVPFIYISEI | -1.36
HMHPKTPDELLALMSEEQRGQIEQLAKLVLMAVSYSGASYYDAVTTMYPRMSEERRRIITHVLNTASP | -0.908
HMHPLFRVVLAGEPNGVGLDDWLTRHEAELINGPSAIGVLTVKIAMGRRSFETVLDEIRADGETIFVEPV | -3.49
HMHPTDMKLTARLEEGAQFVRTQQLSKAIEIFTEVIKLDQNWAEAWNKRATVFYMMGKFKQSQEDIDKVLA | 0.0611
HMHPTEKNLTSLLADGSFYMNQNKLETAYDTFTKTIELDPSWAEAWNKRATVLYLMGKYELSQADIDQV | 0.0869
HMHPVTGRIGTVTAANGLNLRADSSEYANVVATLGYGVDVTVTGERINGFYPVRVGTLSGYVSADYVSFNS | -1.23
HMHQVHKIDGVKYYLHLVEKGNTLYGISKQYNVSVERIEKANTEALSDGLKENQTLLIPVTSDNKKT | -0.537
HMHREITGSLAERNGRYTAILNLYDEDGKRRQKSIALGIPVKGNKRKAQAQLEELKRAYSLGLPQ | -0.346
HMHRGTPASIIAAAKQYLTGGQTVELYEREGGPWTFRLRTYLSETPYPEKVRASVEALKPAGVVFLYELQS | -0.019
HMHRIKRRNDTLVSALDSIAGIGAKRKKALLQHFGSVRAIKAVSAEEIAKVEGISPTLANQIFEAL | -1.07
